Positions count from the first letter of the chain named.
Key:
[1] = system: wild type and mutated membrane LIGHT; experiment: Alanine scanning mutagenesis of membrane LIGHT and flow cytometry (HEK293FF cells); format: binding, human
Text: The full length LIGHT gene was synthesized by GeneArt (ThermoFisher Scientific) and cloned into the mammalian expression vector pcDNA 3.1(+). The following Ala mutations were introduced into the LIGHT gene: 30 single amino acid alanine substitutions from F57A to E86A; 2 single amino acid alanine substitutions; G188A, R189A; one serine substitution, A190S; 17 single amino acid alanine substitutions; T191A to V207A and 10 four amino acid alanine substitutions, 60-63, 64-67, 68-71, 72-75, 76-79, 80-83, 84-87, 88-91, 92-95 and 96-99. Constructs were reconstituted according to manufacture instructions, using DEPC-treated and sterile filtered water. Competent TOP10 E. coli cells were transformed with 100 ng of each construct and a single colony from each construct was picked and used to inoculate 10 ml of LB/carb100/glu2% medium and grown overnight at 37° C., 200 rpm. The extraction of the construct DNA was performed using the Qiagen QIAprep Spin Miniprep Kit (250) and the concentration was determined by measuring the O.D. at 260 nm in a spectrophotometer.
HEK293FF cells were cultured in Freestyle™293 expression medium (ThermoFisher scientific cat. no. 12338018) supplemented with 2 mM L-Glutamine. The day of transfection the cells were seeded in a 24-well plate at 0.6×10^6 cells/well. Lipofectamine 2000 (ThermoFisher scientific), 3 μl, was mixed with 50 μl OptiMEM medium (GIBCO) and then added to 50 μl Opti-MEM medium containing 3 ug plasmid DNA and incubated for 20 min at RT to form DNA-Lipofectamine 2000 complexes which were then added to the HEK293FF cells and incubated at 37° C., 5% CO2 for 24 hours. For each construct, in duplicate, 0.60×10^6 cells/well were used in a 96 well round bottom plate. Cells were centrifuged for 3 minutes at 300×g at 4° C., the supernatant discarded and the cells washed with 150 μl FACS buffer (0.5% FBS in phosphate buffered saline). This process was repeated 3 times. For each construct, […] cells/well were incubated with anti-LIGHT antibodies at the EC50 concentration and with positive controls of anti-LIGHT mAb MAB664 (R&D Systems), mAb F19 (EP2292663) or LTBR-Fc (R&D Systems), in a final volume of 50 μl/well for 30 min at 4° C., with shaking. The wells were washed 3 times as above and 50 μl/well of goat anti-human IgG FITC (1:1500 dilution in FACS buffer, SIGMA F9512-2ML) or goat anti-mouse APC (1/500 dilution in FACS buffer, BDBioscience 550826), as appropriate, was added to the wells and incubated for 30 min at 4° C. protected from the light, with shaking. The cells were then washed as above, resuspended in 100 μl of FACS buffer and binding of the antibodies to the constructs was measured using flow cytometry and a total of 10,000 cells were acquired for each sample. Controls of buffer and secondary antibody only as well as HEK293FF non transfected cells were also used.
All of the mAbs of this invention show a similar profile in that their epitope is located at amino acids 188-197 of LIGHT. […] The epitope of the mAbs of this invention defined by alanine scanning mutagenesis are residues 188-197 of LIGHT. This is visually depicted in FIG. 8 utilising a 3D visualisation of the LIGHT trimer from the crystal structure of LIGHT from Liu et al. (Structure 22: 1252-62; 2014). This would result in the mAbs binding to the “tip” of the LIGHT trimer and explaining the 1:1 binding. The impact of this epitope would result in […] less dosing of mAb 3B04 being required to neutralise membrane LIGHT compared to, for example, mAbs F19 and F23 (of EP2292663) which bind both soluble and membrane LIGHT equally and bind LIGHT in the ratio 3:1.

[2] = target: T1, DcR3 binding to membrane LIGHT (EL4-LIGHT cells) (Homo sapiens, UniProt O43557); experiment: Competition binding of anti-membrane LIGHT antibodies with DcR3-His on EL4-LIGHT cells; details: mAb at up to 100 nM
T1 construct: expressed in transfected cells; host or cells: EL4 mouse lymphoma cells, stably transduced
T1 sequence (O43557 whole entry): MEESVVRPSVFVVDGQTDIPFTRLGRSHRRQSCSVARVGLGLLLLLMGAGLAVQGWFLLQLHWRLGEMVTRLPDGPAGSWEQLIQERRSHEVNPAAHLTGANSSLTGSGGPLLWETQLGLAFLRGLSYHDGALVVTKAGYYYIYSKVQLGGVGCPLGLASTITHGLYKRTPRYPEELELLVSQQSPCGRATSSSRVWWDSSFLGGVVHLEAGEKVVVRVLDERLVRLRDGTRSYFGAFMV
Method: DcR3 (TNFRSF6B) is a decoy receptor that competes with receptors for ligand binding. DcR3 can bind and neutralise LIGHT with high affinity and TL1A and FasL with lower affinity (Zhan C et al. Structure. 2011, 19:162-71 “Decoy strategies: the structure of TL1A:DcR3 complex”). Stably transduced LIGHT-expressing EL4 cells (mouse lymphoma cell line; EL4-LIGHT) were used for the flow cytometry-based competition-binding analysis.
EL4-LIGHT cells (0.25×10^6) were preincubated with anti-membrane LIGHT mAbs (0-300 nM) for 15 min at 4° C. followed by incubation with DcR3-His tagged (1 nM, Creative BioMart; ref:TNFRSF6B-552H, lot:962512) for 30 min at 4° C. The samples were then incubated with mouse anti-histag antibody (diluted 1:500, Biolegend, cat. no. 652502) for 30 minutes at 4° C., followed by incubation with anti-mouse APC (dil 1:500, BDBiosciences, cat. no. 550826) for 30 minutes at 4° C. The tubes were washed three times after each of the detection antibody stages and flow cytometry analysis was performed. Specific mean fluorescence intensity (MFI) obtained from the binding of DcR3-His to LIGHT on EL4 cells were used to determine the levels of competition binding.

[3] = system: CMV stimulated human PBMC; experiment: Human PBMC antigen specific (CMV) recall response in vitro, cytokines by Luminex; format: cell-based; details: CMV stimulation, 5 day incubation
Method: In order to test the efficacy of anti-LIGHT mAbs on stimulated PBMC a recall antigen CMV (cytomegalovirus) lysate was utilised to stimulate PBMC from human CMV-positive donors (ImmunXperts, Belgium). 200 000 cells per well in RPMI (Thermofisher cat. no. 11875) plus 10% FBS (GIBCO) was added to CMV lysate (Serion immunologics cat. no. BA109VS, final concentration 10 ug/ml) with test mAbs in a volume of 200 ul. After a 5 day incubation at 37C and 5% CO2 the media was recovered by centrifugation and assayed for cytokines by Luminex immunoassay (ThermoFisher).

[4] = system: DSS-induced colitis in hu-NOG mice; experiment: DSS-induced acute colitis in humanized (hu-NOG) mice; format: in vivo, mouse (hu-NOG)
Method: The experiments were carried out with the NOD/Shi-scid/IL-2Rγnull immunodeficient mouse strain (NOG) engrafted with CD34+ hematopoietic stem cells isolated from human cord blood as described in Manfroi B et al. (Cancer Res. 2017; 77:1097-1107). The reconstitution of the human immune system in the mice occurred for at least 14 weeks, and hu-mice were used that had at least 25% human CD45+/total CD45 cells. Female hu-NOG mice were randomised into 3 groups (n=10) taking into account the humanization rate and the CD34+ cell donors. All animal studies described in this study have been reviewed and approved by the local ethic committee (CELEAG). Mice were allowed to acclimate to the experimental environment for 5 days prior to the beginning of the experiment. The DSS was administrated for 7 days, from day 2 to 8. The DSS (3%) was added to the drinking water (ad libitum) and freshly renewed every two days.
All treatments started before the DSS-induced colitis. 3B04 variant 16 (5 mg/kg) and the isotype control and anti-TNF (Humira) antibodies (10 mg/kg) were administrated i.p. on days 0, 3, 6, 9. The experiment was terminated on day 12. The following parameters were recorded daily for 12 days: body weight in grams (g); diarrhea and stool consistency; bleeding and mortality. The global clinical score was calculated as follows: […]

B1: LTBR-Fc: LTBR-Fc receptor fusion protein (R&D Systems), positive control in alanine scanning (protein)
chain: SQPQAVPPYASENQTCRDQEKEYYEPQHRICCSRCPPGTYVSAKCSRIRDTVCATCAENSYNEHWNYLTICQLCRPCDPVMGLEEIAPCTSKRKTQCRCQPGMFCAAWALECTHCELLSDCPPGTEAELKDEVGKGNNHCVPCKAGHFQNTSSPSARCQPHTRCENQGLVEAAPGTAQSDTTCKNPLEPLPPEMSGTMLM
modifications: left off: a dimerising Fc or GST
notes: LTBR-Fc receptor fusion protein (R&D Systems), positive control in alanine scanning
[1]; single substitutions F57A to E86A and four amino acid substitutions 60-63 to 96-99
  Binding to LIGHT alanine substitution constructs versus WT LIGHT: no difference in binding
[1]; substitutions G188A to V207A
  Binding to LIGHT amino acid substitution constructs versus WT LIGHT: no difference in binding

B2: 3A07: parental anti-membrane LIGHT antibody, VL SEQ ID NO 97, VH SEQ ID NO 101; chimeric IgG4 mAb (antibody, listed as Homo sapiens, V domains shown)
VH: QVQLQQSGAELVRPGAPVTLSCKASDYTFTDSEIHWVKQTPVHGLEWIGEIDPETGGTAYNQKFKGKATLTADKSSSTAYMELRSLTSEDSAVYYCSRETDYFFDYWGQGTTLTVSS
VL: ENVLTQSPAIMSASPGEKVTMTCSASSSVSYMYWYQQRPGSSPRLLIYDTSNLASGVPVRFSGSGSGTSYSLTISRMEAEDAATYYCQQWSSYPLTFGSGTKLEIK
[2]
  Inhibition of DcR3 binding to membrane LIGHT: only partially inhibit

B3: 3C10: parental anti-membrane LIGHT antibody, VL SEQ ID NO 89, VH SEQ ID NO 93; chimeric IgG4 mAb (antibody, listed as Homo sapiens, V domains shown)
VH: B2 VH with Q1E, P17S
VL: B2 VL with E1D, N2V, L4M, S7T, R38K, S99A, I105L
[2]
  Inhibition of DcR3 binding to membrane LIGHT: only partially inhibit

B4: 3B04_var16: deimmunised 3B04 IgG4 variant: 3B04_VL_4 (SEQ ID NO 33) + 3B04_VH_4 (SEQ ID NO 37) (antibody, listed as Homo sapiens, V domains shown)
VH: QVQLVQSGAEVKKPGASVKVSCKASGYTFTDYEMHWVRQAPGQGLEWMGEIDPETGDTAYAQKFQGRVTLTADKSTSTAYMELSSLRSEDTAVYYCSRETDYFFDYWGQGTLVTVSS
VL: DIQMTQSPSSLSASVGDRVTITCRASENIYGALNWYQQKPGKAPKLLIYGATNLAEGVPSRFSGSGSGRDYTLTISSLQPEDFATYYCQNVLTTPWTFGQGTKLEIKR
[3]; FIG. 11A
  IL-17 production from PBMC: significantly (p<0.05) inhibited
[3]; FIG. 11B
  IFN gamma production from PBMC: significantly (p<0.05) inhibited
[3]; FIG. 11C
  TNF production from PBMC: significantly (p<0.05) inhibited
[3]; FIG. 11D
  IL-6 production from PBMC: significantly (p<0.05) inhibited
[3]; FIG. 11E
  IL-12p70 production from PBMC: significantly (p<0.05) inhibited
[4]; 3B04 variant 16 5 mg/kg, Humira 10 mg/kg
  Effect on global clinical score compared to the anti-TNF positive control: significantly superior (p<0.05)
[4]; i.p. days 0, 3, 6, 9, versus IgG control, FIG. 9
  Global clinical score: significant (p<0.05) decrease in global clinical score as early as day 2

B5: 2E08: parental anti-membrane LIGHT antibody, VL SEQ ID NO 81, VH SEQ ID NO 85; chimeric IgG4 mAb (antibody, listed as Homo sapiens, V domains shown)
VH: QVQMKESGAELVRPGVSVKISCKGSGYTFTDYAIHWVKQSHAKTLEWIGVISTYYGDASYNQKFKGKATMTVDKSSSTAYMELARLTSDDSAIYYCARSRGEYGNYDAMDYWGQGTSVTVSS
VL: DIVLTQSPASLAVSLGQRATISCKASQSVDYDGDSYMNWYQQKPGQPPKLLIYAASNLESGIPARFSGSGSGTDFTLNIHPVEEEDAATYYCQQSNEDPLTFGAGTKLELK
[2]
  Inhibition of DcR3 binding to membrane LIGHT: only partially inhibit

From patent publication US11312781B2, “Antigen binding molecules that bind LIGHT” (Capella Bioscience Ltd., priority 2018, dated 2022)
